Patent US10746738B2, “Claudin-1 peptide reagents and methods” (THE REGENTS OF THE UNIVERSITY OF MICHIGAN, priority 2015, dated 2020)

Columns and labels:
[1] = molecular target: T1, claudin-1 (CLDN1) (Homo sapiens, UniProt O95832); assay: siRNA knockdown of CLDN1 expression, peptide and antibody binding to SW620 cells; format: cell-based
T1 construct: endogenous in cells; host or cells: SW620 human colorectal adenocarcinoma cells
T1 sequence (O95832 1-211): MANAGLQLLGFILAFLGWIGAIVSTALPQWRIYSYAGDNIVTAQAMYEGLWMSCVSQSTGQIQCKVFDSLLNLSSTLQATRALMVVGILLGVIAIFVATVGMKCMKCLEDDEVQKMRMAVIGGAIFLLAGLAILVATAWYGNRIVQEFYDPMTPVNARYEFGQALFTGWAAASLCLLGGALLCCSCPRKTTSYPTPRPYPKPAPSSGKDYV
Description: CLDN1 expression was knocked down using Dharmacon On-Target Plus SMARTpool Human CLDN1 siRNA (Thermo Scientific) according to the manufacturer's protocol. SW620 cells were plated overnight on coverslips in a 12-well plate at 0.2×10^6 cells/mL. The following day, cells were transfected with 3 μL DharmaFECT1 and either 25 nM CLDN1 or control siRNA. After 72 h, transfected cells were analyzed for CLDN1 expression through immunocytochemistry, a peptide binding study, or a Western blot of the cell lysate. For the immunocytochemistry experiment, cells were fixed with ice-cold methanol for 20 minutes at −20° C., blocked for 1 h at RT with PBS+2% BSA, stained with anti-human CLDN1 antibody at 5 μg/mL for 1 h at RT, then with goat anti-Rabbit AF488 (1:500) for 1 h at RT before being mounted on slides with DAPI with Prolong Gold. siRNA-transfected cells were also stained with 5 μM RTS-Cy5.5 or SPT-Cy5.5 for 30 minutes at 4° C., fixed with 4% PFA for 10 minutes at RT, then mounted on slides. Simultaneously, transfected cells were lysed with RIPA buffer containing Roche Mini-Complete EDTA-free Protease Inhibitor for 10 minutes on ice, collected and spun at 20,000×g for 10 minutes at 4° C. Supernatant was saved, total protein concentration quantified via a BCA assay, and 10 ug protein of each sample run on a Novex 4-20% 1.5 mm protein gel before transferring to a PVDF membrane. The membrane was blocked with PBST+5% non-fat milk for 1 h at 4° C., stained with either rabbit anti-CLDN1 Ab or mouse anti-tubulin Ab at 4° C. overnight, then with anti-rabbit HRP (1:500, for CLDN1) or anti-mouse HRP (1:500, for tubulin) for 1 h at RT before developing.
The specificity of peptide binding was validated on siRNA knockdown. […] These cells were transfected with siRNA to knockdown cell surface expression of claudin-1. […] The fluorescence intensities (mean±std) are shown (FIG. 2H). […] Given the experimental design and mean-squared-errors shown in FIG. 2H, with triplicate slides we have 98% power to obtain P<0.01 for interactions that show a 3-fold difference of differences.

[2] = system: SW620 cells; assay: Apparent dissociation constant by flow cytometry; format: binding, human; settings: 0-200 nM, 1 h at 4° C., R^2=0.95
Description: The apparent dissociation constant of RTS*-Cy5.5 to SW620 cells was measured. SW620 cells were washed two times with PBS+0.5% BSA, then 1×10^5 cells were incubated with RTS*Cy5.5 at dilutions ranging from 0-200 nM for 1 h at 4° C. Cells were then washed of unbound peptide 5 times with PBS+0.5% BSA before analyzing via flow cytometry (FACS Canto, BD). Sample means were used to calculate the equilibrium dissociation constant, kd, via nonlinear regression analysis using GraphPad Prism software.
The apparent dissociation constant (kd) of the peptides to cells in vitro was determined. The fluorescently-labeled peptide was be serially diluted in PBS at concentrations that ranged from 0 to 200 nM in 25 nM increments. Cells were incubated with the peptide, and the mean fluorescence intensities was measured on flow cytometry. The equilibrium dissociation constant kd=1/ka was calculated by performing a least squares fit of the data to the non-linear equation I=(I0+Imaxka[X])/([…]). I0 and Imax are the initial and maximum fluorescence intensities, corresponding to no peptide and at saturation, respectively, and [X] represents the concentration of the bound peptide. This approach is illustrated with RTS*-Cy5.5 in FIG. 3B, where kd=42 nM.

What does the source list for “RTS*-Cy5.5: RTSPSSR labeled at the C-terminus with Cy5.5 via a GGGSK linker”?
signal for siCL versus siCLDN1 cells ([1]; SW620 cells, control siRNA versus CLDN1 siRNA, 3 replicate slides): 10.5 fold-change; binding to the surface of SW620 cells ([1]; confocal microscopy): strong binding; Kd [2]: 42 nM
